What was measured:
[1] = target: human TGFβ3 (human) (UniProt P10600)
[2] = target: human TGFβ1 (human) (UniProt P01137)
Sequence of UniProt P01137 (P01137 279-390 limits assumed): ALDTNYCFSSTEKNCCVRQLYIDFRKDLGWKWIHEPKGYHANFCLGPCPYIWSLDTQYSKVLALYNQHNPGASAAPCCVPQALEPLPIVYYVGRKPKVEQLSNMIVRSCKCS

Sequence of UniProt P10600 (P10600 301-412 limits assumed): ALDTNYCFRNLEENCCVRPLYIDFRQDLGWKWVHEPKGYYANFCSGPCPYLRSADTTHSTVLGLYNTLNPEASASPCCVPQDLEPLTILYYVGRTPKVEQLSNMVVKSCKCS

IC50, inhibition of TGFβ3-induced Smad2 reporter activity [1]: 1.95 nM | IC50, inhibition of TGFβ1-induced Smad2 reporter activity [2]: 0.91 nM
Substance: M7824
